Data set [1] deals with the molecule itself. As to the kind of experiment: crystal structure; OPTN CC2-UBAN (416–510) crystallised with linear tetraubiquitin, hanging drop, 16% PEG 3350, 250 mM HCOOK, 20 °C; 2.7 Å.
Data set [2] concerns the target T1, linear (M1-linked) tetraubiquitin (UniProt P0CG48 1-76; P0CG48 1-76; P0CG48 1-76; P0CG48 1-76).
T1 construct: ubiquitin, first unit of four joined head to tail (M1-linked); ubiquitin, second unit; ubiquitin, third unit; ubiquitin, fourth unit; also called linear tetraubiquitin; linear tetra-ubiquitin; source: E. coli, purified (heat treatment, HiTrap SP, Superdex 200)
The description is as above. The following applies: both partners purified.

T1 sequence (P0CG48 1-304, one chain of several): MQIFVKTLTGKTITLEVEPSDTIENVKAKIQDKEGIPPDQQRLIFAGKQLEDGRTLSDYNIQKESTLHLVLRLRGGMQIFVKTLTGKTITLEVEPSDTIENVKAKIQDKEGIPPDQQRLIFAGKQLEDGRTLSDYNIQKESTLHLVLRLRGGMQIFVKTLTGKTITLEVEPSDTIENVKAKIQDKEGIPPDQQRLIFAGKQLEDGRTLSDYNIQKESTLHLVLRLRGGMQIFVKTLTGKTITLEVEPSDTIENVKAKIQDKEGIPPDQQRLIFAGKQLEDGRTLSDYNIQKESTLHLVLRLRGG

B1: human OPTN CC2-UBAN region (residues 416–510) (domain or fragment, UniProt Q96CV9 416-510, looked up)
chain: EKVDRAVLKELSEKLELAEKALASKQLQMDEMKQTIAKQEEDLETMTILRAQMEVYCSDFHAERAAREKIHEEKEQLALQLAVLLKENDAFEDGG
notes: residues 445-505 modelled for the longest chain; GST was cut off with Turbo3C (HRV3C) protease; also called OPTN-UBAN; source: E. coli Rosetta 2 (DE3), purified (glutathione Sepharose 4B, on-column cleavage, Resource Q, Superdex 75)
As to B1, in data set [1], the stoichiometry N – broadly, a count of units in the complex or per binding partner – was 2. Moreover, the binding result in data set [2] is “binds”.

Values taken from paper PMC4999505, “Linear ubiquitination is involved in the pathogenesis of optineurin-associated amyotrophic lateral sclerosis” (Nature Communications, 2016).
